Peptide text beside a SMILES is read from it.
T1: binary FGFR1c-Klotho complex (UniProt O35082+P11362)
T1 construct: The ectodomain of murine Klotho (A35 to K982) was purified from culture media; FLAG (C); made in house; host or cells: E. coli (FGFR1c, FGF23); HEK293 (Klotho ectodomain)
T1 sequence (P11362 142-365): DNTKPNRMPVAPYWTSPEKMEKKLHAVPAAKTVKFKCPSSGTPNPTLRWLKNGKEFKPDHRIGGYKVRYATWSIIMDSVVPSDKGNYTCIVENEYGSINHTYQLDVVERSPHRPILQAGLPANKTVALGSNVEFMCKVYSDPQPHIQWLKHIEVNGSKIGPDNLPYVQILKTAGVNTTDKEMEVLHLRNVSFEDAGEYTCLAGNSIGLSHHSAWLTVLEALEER
T1 sequence (O35082 35-982): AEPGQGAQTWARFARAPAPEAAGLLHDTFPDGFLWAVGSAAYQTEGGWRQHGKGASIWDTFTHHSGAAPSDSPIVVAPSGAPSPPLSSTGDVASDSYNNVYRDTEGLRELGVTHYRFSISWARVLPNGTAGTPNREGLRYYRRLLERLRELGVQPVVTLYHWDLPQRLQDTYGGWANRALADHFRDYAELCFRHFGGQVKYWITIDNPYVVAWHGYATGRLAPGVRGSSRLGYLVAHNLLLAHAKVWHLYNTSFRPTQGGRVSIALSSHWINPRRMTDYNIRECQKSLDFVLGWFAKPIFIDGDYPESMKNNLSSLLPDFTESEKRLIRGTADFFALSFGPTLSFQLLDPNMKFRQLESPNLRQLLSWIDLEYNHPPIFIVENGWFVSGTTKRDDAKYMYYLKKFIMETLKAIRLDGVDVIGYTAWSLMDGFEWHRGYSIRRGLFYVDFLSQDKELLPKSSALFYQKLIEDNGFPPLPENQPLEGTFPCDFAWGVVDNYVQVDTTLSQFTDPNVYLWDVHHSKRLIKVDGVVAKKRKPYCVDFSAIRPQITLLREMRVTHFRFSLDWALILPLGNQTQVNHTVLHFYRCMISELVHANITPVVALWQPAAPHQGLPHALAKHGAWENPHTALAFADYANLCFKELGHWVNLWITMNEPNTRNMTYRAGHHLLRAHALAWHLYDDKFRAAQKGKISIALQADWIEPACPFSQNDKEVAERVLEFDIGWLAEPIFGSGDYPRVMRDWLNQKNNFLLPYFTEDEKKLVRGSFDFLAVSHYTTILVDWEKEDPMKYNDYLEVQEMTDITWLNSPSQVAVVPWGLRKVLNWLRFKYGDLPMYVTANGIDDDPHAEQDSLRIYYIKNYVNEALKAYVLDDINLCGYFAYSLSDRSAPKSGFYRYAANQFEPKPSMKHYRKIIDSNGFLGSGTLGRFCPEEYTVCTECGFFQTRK


Target: T1, binary FGFR1c-Klotho complex
Assay: SPR competition: FGFR1c-Klotho binding to immobilized FGF23^28-251
Parameters: species or system human FGFR1c, murine Klotho
Details: for inhibition of FGFR1c-Klotho binding to immobilized FGF23^28-251: FGF21^168-209 at molar ratios of 6:1 and 10:1; for rightward shift of dose-response curve compared to full-length FGF23: FIG. 3D
Protocol: A variety of interaction or binding assays can be used to determine that an agent specifically binds the binary FGFR-Klotho complex, such as the SPR interaction analysis described below. One aspect of the present invention utilizes SPR analysis of FGF23 protein/peptide binding to the binary FGFR-Klotho complex. The SPR analysis involved FGF23 protein/peptide immobilization by amine coupling on flow channels of a chip. Proteins were injected over the chip at a flow rate of 50 μl min^−1, and at the end of each protein injection (180 s), HBS-EP buffer (10 mM HEPES-NaOH, pH 7.4, 150 mM NaCl, 3 mM EDTA, 0.005% (v/v) polysorbate 20; 50 μl min^−1) was flowed over the chip to monitor dissociation for 180 s. The chip surface was then regenerated by injecting 50 μl of 2.0 M NaCl in 10 mM sodium acetate, pH 4.5. […] For each protein injection over a FGF23 protein/peptide chip, the nonspecific responses from the FHF1B control flow channel were subtracted from the responses recorded for the flow channel onto which FGF23 protein/peptide was immobilized. To analyze FGF23 binding to the binary FGFR1c-Klotho complex, FGF23^28-251 was coupled to a chip, and increasing concentrations of 1:1 complex of the ectodomains of FGFR1c and Klotho in HBS-EP buffer were passed over the chip. To measure binding of the C-terminal tail of FGF23 to the binary FGFR1c-Klotho complex, FGF23^180-251 was immobilized on a chip, and increasing concentrations of 1:1 complex of the ectodomains of FGFR1c and Klotho in HBS-EP buffer were passed over the chip. To examine whether the C-terminal tail of FGF23 can compete with full-length FGF23 for binding to the binary FGFR1c-Klotho complex, FGF23^28-251 was immobilized on a chip. Increasing concentrations of FGF23^180-251 were mixed with a fixed concentration of 1:1 complex of the ectodomains of FGFR1c and Klotho in HBS-EP buffer, and the mixtures were passed over the chip. As a control, competition of FGF23 in solution with immobilized FGF23 for binding to the binary FGFR1c-Klotho complex was studied. Increasing concentrations of FGF23^28-251 were mixed with a fixed concentration of 1:1 complex of the ectodomains of FGFR1c and Klotho in HBS-EP buffer, and the mixtures were passed over the FGF23 chip. Competition of the FGF23 C-terminal tail peptide with full-length FGF23 for binding to the binary FGFR1c-Klotho complex was also studied using the “reverse” SPR assay format, where FGF23^180-251 was immobilized on a chip and mixtures of a fixed concentration of 1:1 complex of the ectodomains of FGFR1c and Klotho with increasing concentrations of FGF23^28-251 were passed over the chip. As a control, competition of FGF23 C-terminal tail peptide in solution with immobilized FGF23 C-terminal tail peptide for binding to the binary FGFR1c-Klotho complex was analyzed. Increasing concentrations of FGF23^180-251 were mixed with a fixed concentration of 1:1 complex of the ectodomains of FGFR1c and Klotho in HBS-EP buffer, and the mixtures were passed over the FGF23^180-251 chip. To verify the specificity of the interaction between the FGF23 C-terminal tail and the FGFR1c-Klotho complex, FGF23^28-251 was immobilized on a chip. Increasing concentrations of FGF21^168-209 were mixed with a fixed concentration of 1:1 complex of the ectodomains of FGFR1c and Klotho in HBS-EP buffer, and the mixtures were passed over the chip. In addition, the ability of the FGF23 C-terminal tail peptide to interfere with binary complex formation between βKlotho and either FGF19 or FGF21 was tested, as was its ability to interfere with ternary complex formation between βKlotho, FGFR, and either FGF19 or FGF21. FGF19^23-216 and FGF21^29-209 were immobilized on two flow channels of a chip. FGF23^180-251 and the ectodomain of βKlotho were mixed at a molar ratio of 2:1, and the mixture was injected over the chip. Next, FGF23^180-251 and the 1:1 complex of the ectodomains of FGFR1c and βKlotho were mixed at a molar ratio of 10:1, and the mixture was passed over the FGF19/FGF21 chip. […]

molar excess over FGFR1c-Klotho complex at half-maximum inhibition of FGFR1c-Klotho binding to FGF23^28-251 (FGF23^28-251 chip)	rightward shift of dose-response curve compared to full-length FGF23	amount relative to FGFR1c-Klotho complex yielding 50% inhibition of binding to immobilized FGF23^28-251 (FGF23^28-251 chip, control)	Molecule	inhibition of FGFR1c-Klotho binding to immobilized FGF23^28-251
5.7 fold molar excess	~6 fold	–	CSCC[C@H](NC(=O)[C@H](CCCNC(=N)N)NC(=O)[C@H](C)NC(=O)[C@H](CCCNC(=N)N)NC(=O)[C@@H]1CCCN1C(=O)[C@H](CCCCN)NC(=O)[C@H](CC(C)C)NC(=O)[C@@H](NC(=O)[C@H](CC(N)=O)NC(=O)[C@H](CC(C)C)NC(=O)[C@@H]1CCCN1C(=O)[C@H](CC(=O)O)NC(=O)[C@H](CCCNC(=N)N)NC(=O)[C@H](CCC(=O)O)NC(=O)[C@H](CO)NC(=O)[C@H](CC(=O)O)NC(=O)[C@H](CC(=O)O)NC(=O)[C@H](CCC(=O)O)NC(=O)[C@H](C)NC(=O)[C@@H](N)CO)C(C)C)C(=O)N[C@H](C(=O)N1CCC[C@H]1C(=O)N[C@@H](C)C(=O)N1CCC[C@H]1C(=O)N[C@@H](C)C(=O)N[C@@H](CO)C(=O)O)[C@@H](C)O [FGF23^180-205] (H-SAEDDSERDPLNVLKPRARMTPAPAS-OH; N-terminus and C-terminus assumed)	able to compete, in a dose-dependent fashion
–	–	less than an equimolar amount	FGF23^28-251: human FGF23 (A28 to I251), bioactive full-length ligand expressed in E. coli (protein, listed as Homo sapiens) ASPLLGSSWGGLIHLYTATARNSYHLQIHKNGHVDGAPHQTIYSALMIRSEDAGFVVITGVMSRRYLCMDFRGNIFGSHYFDPENCRFQHQTLENGYDVYHSPQYHFLVSLGRAKRAFLPGMNPPPYSQFLSRRNEIPLIHFNTPIPRRHTRSAEDDSERDPLNVLKPRARMTPAPASCSQELPSAEDNSPMASDPLGVVRGGRVNTHAGGTGPEGCRPFAKFI	–
3.3 fold molar excess	about 3 fold	–	FGF23^180-251: 72-amino acid C-terminal tail of human FGF23 (S180 to I251), expressed in E. coli (protein, listed as Homo sapiens) SAEDDSERDPLNVLKPRARMTPAPASCSQELPSAEDNSPMASDPLGVVRGGRVNTHAGGTGPEGCRPFAKFI	competed, in a dose-dependent fashion

From patent publication US8889621B2, “Inhibiting binding of FGF23 to the binary FGFR-Klotho complex for the treatment of hypophosphatemia” (New York University, priority 2009, dated 2014)
